Positions count from the first letter of the chain named.
Legend:
Test in all cases: SPR, mAb captured, C2 mutant analyte;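 note: Anti-C2 mAbs captured on goat anti-human IgG Biacore CM5 chips, alanine or serine C2 surface mutants flowed over at 37 °C, double-referenced sensorgrams fitted to a 1:1 binding model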
[1] = target: T1, human C2 T317A (human, UniProt P06681 21-752)
T1 sequence: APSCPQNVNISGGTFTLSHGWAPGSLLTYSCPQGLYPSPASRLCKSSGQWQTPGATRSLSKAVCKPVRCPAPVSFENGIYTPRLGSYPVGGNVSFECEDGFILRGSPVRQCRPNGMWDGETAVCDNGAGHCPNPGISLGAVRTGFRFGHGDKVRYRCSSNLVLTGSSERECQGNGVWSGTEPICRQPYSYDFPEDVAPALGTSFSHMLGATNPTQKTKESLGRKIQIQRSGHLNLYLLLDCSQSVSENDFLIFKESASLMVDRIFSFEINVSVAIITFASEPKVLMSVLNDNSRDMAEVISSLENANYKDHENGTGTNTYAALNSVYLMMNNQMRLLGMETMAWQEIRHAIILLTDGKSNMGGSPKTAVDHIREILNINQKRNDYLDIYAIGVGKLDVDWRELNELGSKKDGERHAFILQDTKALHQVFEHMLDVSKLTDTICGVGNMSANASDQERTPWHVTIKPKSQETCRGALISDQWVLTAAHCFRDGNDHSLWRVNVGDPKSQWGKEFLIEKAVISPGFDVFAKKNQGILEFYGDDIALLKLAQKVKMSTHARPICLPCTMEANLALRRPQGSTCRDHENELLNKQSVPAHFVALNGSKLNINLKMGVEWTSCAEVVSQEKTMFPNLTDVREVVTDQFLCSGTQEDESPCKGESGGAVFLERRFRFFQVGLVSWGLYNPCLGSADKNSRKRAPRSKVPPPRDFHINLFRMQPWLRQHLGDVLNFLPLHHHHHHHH

[2] = target: T2, human C2 R493A (human, UniProt P06681 21-752)
T2 sequence: T1 sequence with A297T, R473A

[3] = target: T3, human C2 V455A (human, UniProt P06681 21-752)
T3 sequence: T1 sequence with A297T, V435A

[4] = target: T4, human C2 G466A (human, UniProt P06681 21-752)
T4 sequence: T1 sequence with A297T, G446A

B1: RF16-214 (antibody, V domains shown)
VH: EVQLLESGGGLVQPGGSLRLSCAASGFTFSWYQMMWVRQAPGKGLEWVSRIYPSGGGTAYADSVKGRFTISRDNSKNTLYLQMNSLRAEDTAVYYCARDAGYGDNWGQGTLVTVSS
VL: QSALTQPPSVSVSPGQTASITCSGDKLGEKYASWYQQKAGQSPVMVIYQDRKRPSGIPERFSGSNSGNTATLTISGTQAMDEADYYCQAWDTRAVVFGGGTKLTVLG
- Kd [1]: 27.9 nM
- Kd [2]: 25.3 nM
- Kd [3]: 9.8 nM
- Kd [4]: 144 nM

Reference: patent publication US20220332804A1 (CSL INNOVATION, published 2022)
